Reference: the Human Domainome abundance scans (Beltran et al. 2025)

B1: FERM and PDZ domain-containing protein 4, residues 75 to 154; numbered along this chain, Q14CM0 (parent)
chain: APRKVEMRRDPVLGFGFVAGSEKPVVVRSVTPGGPSEGKLIPGDQIVMINDEPVSAAPRERVIDLVRSCKESILLTVIQP

Variants of: B1
Assay: abundance fitness (aPCA) (normalised: wild type 0, dead -1); higher = more abundant; growth selection in yeast, the domain comes from the species named
Conditions: Homo sapiens

Abundance fitness: each site, then its substitutions
M48: D -0.095, R -0.046, A 0.044, T -0.015, I -0.154, S 0.008, F -0.01, L -0.072, W -0.152, C -0.003, H -0.121, P -0.917, N -0.095, G -0.025, Y -0.083, E -0.028, V -0.127, K -0.046
D51: W -0.234, N -0.047, K -0.044, R -0.069, S -0.039, Q -0.027, T -0.079, E -0.016, Y -0.145, M -0.077, L -0.168, F -0.194, C -0.135, I -0.511, H 0.01, P -0.821, V -0.385, A -0.087
E60: F -0.183, R -0.041, D -0.049, S -0.005, H -0.038, M -0.048, C -0.059, K -0.015, N -0.028, W -0.112, Y -0.178, I -0.21, L -0.137, G -0.025, P -0.077, T -0.03, V -0.131
P42: N -0.069, M -0.154, Q -0.043, E -0.024, G -0.237, A -0.036, Y -0.276, H -0.155, W -0.477, K -0.108, V -0.048, D -0.064, S -0.093, L -0.104, I -0.082, T -0.058, R -0.124
D44: A -0.221, S -0.264, G -0.73, P -0.937, M -0.186, R -1.01, H -0.306, C -0.289, W -0.817, F -0.957, K -1.01, Q -0.369, N -0.418, E -0.173, Y -0.697
I49: E -0.894, R -0.868, A -0.581, S -0.929, H -0.676, M -0.529, Y -0.855, T -0.708, G -0.887, W -0.779, P -0.928, V 0.006, L -0.111, D -0.846, F -0.476, N -0.847, Q -0.941, C -0.267
A57: T 0, R -0.12, L 0.032, G -0.233, Y 0.038, E -0.022, C -0.005, S -0.009, D -0.052, I -0.055, K -0.055, Q -0.028, M 0.009, F 0.016, W 0.016, N -0.149, P -0.816, H -0.083
V47: N -0.175, M -0.03, K -0.114, E -0.083, S -0.098, F -0.118, W -0.128, Y -0.019, D -0.084, G -0.426, H -0.06, I 0.018, A -0.112, T -0.01, R -0.192, L 0.012, Q -0.045, C -0.032
R59: F 0.005, T -0.03, H -0.059, V -0.051, L 0.007, G -0.007, S -0.06, W -0.025, M -0.039, C -0.03, P -0.025, Y 0.025, N -0.025, E -0.05, Q 0.022, A -0.028, D -0.385
S55: P -0.027, F -0.143, T -0.157
Q45: K -0.057, A -0.084, D -0.589, L -0.136, T -0.105, S -0.102, N -0.126, E -0.037, R -0.026, V -0.123, I -0.105, C -0.101, H -0.009, F -0.247, W -0.2, P -0.938
I41: M 0.03, S 0.033, N 0.032, W -0.004, K -0.008, Y -0.011, Q -0.003, T 0.013, P -0.925, L 0.024, V -0.009
I46: V -0.014, F -0.255, P -0.611, M -0.293, S 0.073, L -0.051, T -0.113, N -0.679
P58: K -0.027, Q -0.091, L -0.24, G -0.014, Y -0.25, C -0.043, F -0.33, V -0.167, T -0.029, A -0.067, I -0.29, D -0.061, W -0.474, H -0.09, S 0.017, M -0.217, N -0.04, R -0.063, E -0.06
E52: G -0.321, S -0.102, N -0.048, R -0.053, Q -0.012, I -0.053, M -0.038, T -0.037, P -0.861, H -0.037, F -0.083, Y -0.045, L -0.026, K -0.066, D -0.071, C -0.069, W -0.065
V54: Y -0.911, L -0.207, W -1.07, P -0.994, Q -0.647, D -0.928, S -0.627, G -0.993, T -0.13, K -1.21, H -0.942, I -0.117, A -0.271, N -0.945, C -0.03, F -0.692, E -0.771
N50: S -0.185, E -0.054, T -0.597, A -0.143, K -0.223, H -0.11, C -0.2, W -0.173, D -0.035, F -0.145, I -0.607, Q -0.094, M -0.187, L -0.361, P -0.919, G 0, Y -0.162, V -0.695
R61: H -0.012, F -0.044, N -0.041, I -0.107, C -0.065, G -0.134, D -0.021, V -0.044, T -0.037, Q -0.005, M -0.059, K -0.01, S -0.029, A -0.018, W -0.082, E -0.071, Y -0.019, P -0.505
V62: S -0.666, M -0.383, L -0.199, P -0.841, N -0.738, D -0.793, Q -0.745, K -1.03, H -0.711, G -0.936, F -0.17, T -0.25, E -0.86, R -0.917, A -0.32
G43: Q -0.227, R -0.248, P -0.958, D -0.108, H -0.204, V -0.991, W -0.402, F -0.256, N -0.131, E -0.18, Y -0.246, I -1.03, C -0.252, M -0.175, L -0.284, T -0.424, S -0.262
P53: T -0.043, M -0.015, H -0.03, L 0.004, E 0.007, A -0.037, D 0.034, W -0.094, Y -0.078, I 0.116, N -0.005, C -0.029, F -0.124, K -0.003, Q -0.035, G -0.079, S -0.002, R -0.038, V -0.012
